# Measurements: patent US20040235732A1, “Method for modulating angiogenesis using prokineticin receptor antagonists” (published 2004)
# T1: human prokineticin receptor 1 (PKR1) (human)
# T1 chain: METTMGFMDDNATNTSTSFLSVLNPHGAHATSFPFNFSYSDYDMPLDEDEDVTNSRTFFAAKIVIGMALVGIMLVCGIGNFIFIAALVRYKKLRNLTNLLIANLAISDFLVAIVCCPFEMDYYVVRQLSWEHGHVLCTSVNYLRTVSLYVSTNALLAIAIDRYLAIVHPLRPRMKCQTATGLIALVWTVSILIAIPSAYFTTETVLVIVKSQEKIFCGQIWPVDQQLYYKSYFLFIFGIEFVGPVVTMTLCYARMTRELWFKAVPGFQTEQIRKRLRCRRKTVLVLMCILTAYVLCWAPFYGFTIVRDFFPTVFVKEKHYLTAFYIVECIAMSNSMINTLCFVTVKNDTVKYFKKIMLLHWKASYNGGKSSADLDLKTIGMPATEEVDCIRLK
# B1: MV PK1 (ligand)
# chain: MVITGACERDVQCGAGTCCAISLWLRGLRMCTPLGREGEECHPGSHKVPFFRKRKHHTCPCLPNLLCSRFPDGRYRCSMDLKNINF
# B2: Met PK1 (ligand)
# chain: MAVITGACERDVQCGAGTCCAISLWLRGLRMCTPLGREGEECHPGSHKVPFFRKRKHHTCPCLPNLLCSRFPDGRYRCSMDLKNINF
# Columns and labels:
# Experiment in all cases: cell-based or functional assay
# [1] = biological target: T1, human prokineticin receptor 1 (PKR1)
# [2] = biological target: human prokineticin receptor 2 (PKR2) (human)
# human prokineticin receptor 2 (PKR2) (human), sequence (chain, as listed by the source): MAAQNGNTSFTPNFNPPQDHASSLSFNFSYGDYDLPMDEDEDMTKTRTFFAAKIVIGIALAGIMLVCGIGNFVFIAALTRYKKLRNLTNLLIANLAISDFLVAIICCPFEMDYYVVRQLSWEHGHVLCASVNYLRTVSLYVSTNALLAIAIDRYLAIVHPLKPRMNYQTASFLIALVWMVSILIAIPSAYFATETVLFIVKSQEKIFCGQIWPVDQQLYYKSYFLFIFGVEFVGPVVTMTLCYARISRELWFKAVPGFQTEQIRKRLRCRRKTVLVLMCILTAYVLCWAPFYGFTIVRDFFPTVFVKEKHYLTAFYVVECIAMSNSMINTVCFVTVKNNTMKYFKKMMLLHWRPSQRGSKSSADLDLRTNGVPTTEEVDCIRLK
# [3] = biological target: T1, human prokineticin receptor 1 (PKR1)
# [4] = biological target: human prokineticin receptor 2 (PKR2) (human); remark: listed apart in the source
Binder,"dissociation constant (Kb), Schild analysis of calcium mobilization [1] [nM]","dissociation constant (Kb), Schild analysis of calcium mobilization [2] [nM]","Antagonistic Activity of PK mutants (Calcium Mobilization Assay), nM; ligand PK1 [3] [nM]","Antagonistic Activity of PK mutants (Calcium Mobilization Assay), nM; ligand PK2 [3] [nM]","Antagonistic Activity of PK mutants (Calcium Mobilization Assay), nM; ligand PK1 [4] [nM]","Antagonistic Activity of PK mutants (Calcium Mobilization Assay), nM; ligand PK2 [4] [nM]"
B1,116,37.8,6,110,16,29
B2,261,48.9,9,90,15,30
